A short description of the data set: protein stability index of a GFP-peptide fusion (yeast GPS) (PSI 1-4); higher = more stable; sorted into four equal gates, so the index is relative within each strain. Summed up: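 The protein stability index combines read frequencies across sorting gates, each weighted by its gate number and then summed. To obtain those frequencies, a pooled yeast library of GFP fusions to tiled 17-residue yeast protein peptides, on a plasmid also expressing Cherry, was grown to mid-log phase in leucine-free medium. The cells were sorted into four equal gates by GFP/Cherry ratio before plasmid amplification by PCR and Illumina sequencing.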

± gives the uncertainty stated by the source.

In the case of QDKEKIDNLKDTLKENA [ITC1], the protein stability index by setting is: (doa10∆) 2.87 ± 0.046; (pdr5∆) 3.07 ± 0.055; (san1∆) 3.02 ± 0.043; (ubr1∆) 3.09 ± 0.04.

With VPSFLRPDITMYCRPAP [GRR1], the protein stability index was determined as 2.12 ± 0.053 (doa10∆), 2.39 ± 0.045 (pdr5∆), 2.1 ± 0.057 (san1∆) and 2.38 ± 0.051 (ubr1∆).

Regarding WTEASSSGAGTVKLYLP [ECM29], the protein stability index runs as follows: (doa10∆) 2.05 ± 0.052; (pdr5∆) 1.82 ± 0.047; (san1∆) 2.09 ± 0.067; (ubr1∆) 2.02 ± 0.05.

As to ENDEEFYKNKYSSKPYK [RPN2], the protein stability index by setting is: (doa10∆) 2.4 ± 0.062; (pdr5∆) 2.61 ± 0.097; (san1∆) 2.36 ± 0.12; (ubr1∆) 2.19 ± 0.17.

As to SHFDYNTLEFIIEQLSI [YCG1], the protein stability index runs as follows: (doa10∆) 2.48 ± 0.078; (pdr5∆) 2.62 ± 0.12; (san1∆) 2.18 ± 0.14; (ubr1∆) 2.37 ± 0.086.

Consider ATKEGVVLGVEKRATSP [PUP2], for which the protein stability index (doa10∆) is 2.72 ± 0.14, the protein stability index (pdr5∆) amounted to 3.14 ± 0.087, the protein stability index (san1∆) stood at 3.15 ± 0.083 and the protein stability index (ubr1∆) was determined as 3.19 ± 0.053.

SSSSLECATCHGNLASC [RPO31] returned a protein stability index (doa10∆) of 2.79 ± 0.046, a protein stability index (pdr5∆) of 3.04 ± 0.058, a protein stability index (san1∆) of 3.05 ± 0.049 and a protein stability index (ubr1∆) of 2.95 ± 0.037.

Sequence SAISVTNVEDPLAKKQT [SIR2] yielded a protein stability index (ubr1∆) of 3.2 ± 0.21.

Consider LTHRLGGDTCSSDGALC [POP1], for which the protein stability index worked out at 2.96 ± 0.11 (doa10∆), 3.39 ± 0.084 (pdr5∆), 3.17 ± 0.12 (san1∆) and 3.19 ± 0.054 (ubr1∆).

With TDLMSIVQELLDKNLIK [RPC34], the protein stability index came to 3.39 ± 0.21 (doa10∆), 2.74 ± 0.17 (pdr5∆) and 3.15 ± 0.14 (ubr1∆).

In the case of PFQVSSFVKETKLHSGD [SRB8], the protein stability index is, setting by setting: (doa10∆) 2.96 ± 0.088; (pdr5∆) 2.77 ± 0.082; (san1∆) 2.8 ± 0.085; (ubr1∆) 2.91 ± 0.061.

As to EETNVDIGVLEEYARRL [SMC4], the protein stability index by setting is: (pdr5∆) 3.36 ± 0.24; (san1∆) 3.64 ± 0.072; (ubr1∆) 3.48 ± 0.1.

In the case of ATGKKSRGINKGHKFNN [RPL15A], the protein stability index is, setting by setting: (doa10∆) 2.5 ± 0.24; (pdr5∆) 2.69 ± 0.13; (san1∆) 2.34 ± 0.12; (ubr1∆) 2.17 ± 0.13.

On to LNSNNSIIGNKNNNYTW [REC8], for which the protein stability index stood at 2.86 ± 0.14 (doa10∆), 2.76 ± 0.1 (pdr5∆), 2.87 ± 0.07 (san1∆) and 2.41 ± 0.072 (ubr1∆).

For ERLTNSLMMNGRNNGKK [RPS5], the protein stability index reads like this: (doa10∆) 2.98 ± 0.099; (pdr5∆) 3.02 ± 0.088; (san1∆) 2.54 ± 0.071; (ubr1∆) 2.62 ± 0.09.

On to RRRDFGAPANKRPRRGL [SMD1], for which the protein stability index runs as follows: (doa10∆) 2.84 ± 0.094; (pdr5∆) 2.93 ± 0.084; (san1∆) 3.38 ± 0.07; (ubr1∆) 3.29 ± 0.089.

Sequence EGNYRNLNNLKQENAYL [RPB8] displayed a protein stability index (doa10∆) of 3.31 ± 0.084, a protein stability index (pdr5∆) of 3.31 ± 0.085, a protein stability index (san1∆) of 3.27 ± 0.08 and a protein stability index (ubr1∆) of 3.43 ± 0.068.

Regarding GIDPDETVPDNVKTSVS [RPO31], under “doa10∆”, the protein stability index was found to be 2.83 ± 0.22.

In the case of LKTVLHNGRDKIQFHIH [RGR1], the protein stability index by setting is: (doa10∆) 1.49 ± 0.047; (pdr5∆) 1.49 ± 0.05; (san1∆) 1.41 ± 0.074; (ubr1∆) 1.39 ± 0.048.

As for LKDFNTERVVEIGPSPT [FAS2], the protein stability index amounted to 2.888 ± 0.024 (doa10∆), 2.901 ± 0.022 (pdr5∆), 2.861 ± 0.017 (san1∆) and 2.716 ± 0.014 (ubr1∆).

Take TFTKKCLENARSQISEK [SIR4]: the protein stability index is 3.2 ± 0.063 (doa10∆), 3.12 ± 0.057 (pdr5∆), 3.15 ± 0.05 (san1∆) and 3.07 ± 0.041 (ubr1∆).

As to FFLQRKLRSELGYKDTS [BRR2], the protein stability index worked out at 2.11 ± 0.091 (doa10∆), 1.53 ± 0.071 (pdr5∆), 1.71 ± 0.12 (san1∆) and 1.35 ± 0.18 (ubr1∆).

On to SSVIQNYDIITASSLAH [YML103C/NUP188], for which the protein stability index stood at 1.69 ± 0.079 (doa10∆), 1.88 ± 0.066 (pdr5∆), 1.98 ± 0.092 (san1∆) and 2.03 ± 0.041 (ubr1∆).

As to GKTIVVKDLGQGLKLAK [SMC3], the protein stability index (doa10∆) was determined as 2.9 ± 0.15, the protein stability index (pdr5∆) turned out to be 2.92 ± 0.15, the protein stability index (san1∆) turned out to be 2.45 ± 0.16 and the protein stability index (ubr1∆) was 2.81 ± 0.067.

For the sequence ALLRVTKSKNKTLIGLQ [POP4], the protein stability index amounted to 2.71 ± 0.055 (doa10∆), 2.18 ± 0.053 (pdr5∆), 2.27 ± 0.052 (san1∆) and 2.47 ± 0.049 (ubr1∆).

Turning to TGLCSFDYSVILNSIPA [YJL039C/NUP192], the protein stability index is, setting by setting: (doa10∆) 1.6 ± 0.052; (pdr5∆) 1.51 ± 0.059; (san1∆) 1.49 ± 0.095; (ubr1∆) 1.28 ± 0.045.

For HLEALQPLFSTVPEYLK [PGD1], the protein stability index is, setting by setting: (doa10∆) 1.51 ± 0.039; (pdr5∆) 1.69 ± 0.045; (san1∆) 1.66 ± 0.093; (ubr1∆) 2.12 ± 0.066.

For NRTMDGKPVSLPLLYNF [FAS1], the protein stability index is, setting by setting: (doa10∆) 3.08 ± 0.093; (pdr5∆) 3.31 ± 0.1; (san1∆) 2.7 ± 0.072; (ubr1∆) 2.93 ± 0.073.

FGQDVSPMINSTSSGKV [SNM1] gave a protein stability index (doa10∆) of 2.81 ± 0.1, a protein stability index (pdr5∆) of 3.32 ± 0.077, a protein stability index (san1∆) of 2.74 ± 0.067 and a protein stability index (ubr1∆) of 3.02 ± 0.057.

With MTTFRFCRDCNNMLYPR [RPB9], the protein stability index runs as follows: (doa10∆) 2.78 ± 0.14; (pdr5∆) 3.14 ± 0.11; (san1∆) 3.41 ± 0.14; (ubr1∆) 2.99 ± 0.068.

NDQALIKVLLRQNRRPE [RET1] yielded a protein stability index (doa10∆) of 1.83 ± 0.087, a protein stability index (pdr5∆) of 2.45 ± 0.094, a protein stability index (san1∆) of 3.01 ± 0.079 and a protein stability index (ubr1∆) of 2.77 ± 0.059.

Turning to LRRIITDLNQDSAAIIA [GRR1], the protein stability index worked out at 2.64 ± 0.075 (doa10∆), 2.31 ± 0.068 (pdr5∆), 2.6 ± 0.064 (san1∆) and 2.55 ± 0.053 (ubr1∆).

As to ILGDLGKEFGTTPEKPE [FAS2], the protein stability index was determined as 2.83 ± 0.087 (doa10∆), 2.69 ± 0.072 (pdr5∆), 2.51 ± 0.057 (san1∆) and 2.78 ± 0.066 (ubr1∆).

In the case of SLEMVPKDTSAATMTSA [RGR1], the protein stability index is, setting by setting: (doa10∆) 2.47 ± 0.11; (pdr5∆) 2.77 ± 0.12; (san1∆) 2.73 ± 0.088; (ubr1∆) 2.93 ± 0.088.

On to TKSSLNDLDYDLIADTI [YML103C/NUP188], for which the protein stability index is 2.64 ± 0.07 (doa10∆), 2.48 ± 0.057 (pdr5∆), 2.27 ± 0.067 (san1∆) and 2.52 ± 0.053 (ubr1∆).

As for ALSIADDASSAELLGRV [RPC53], the protein stability index stood at 3.02 ± 0.16 (doa10∆), 2.92 ± 0.26 (pdr5∆), 3.21 ± 0.18 (san1∆) and 3.12 ± 0.085 (ubr1∆).

Sequence VIFDASIKDTQNVGQGK [BRN1] came in with a protein stability index (doa10∆) of 2.15 ± 0.14, a protein stability index (pdr5∆) of 2.45 ± 0.12, a protein stability index (san1∆) of 2.61 ± 0.13 and a protein stability index (ubr1∆) of 3.01 ± 0.096.

These data come from the supplement of paper PMC9732359.
